Assay results published in PMC10873642.

Biological target: α-synuclein, 140-residue isoform (αSyn-140) (human) (UniProt P37840)

- decrease in aggregation half-time (t1/2) by ThT fluorescence of 90% (45 µM) αSyn-140 co-incubated with 10% (5 µM) αSyn-112 monomers, against 100% (50 µM) αSyn-140: 25%
Substance: α-synuclein splice isoform αSyn-112 (lacking exon 5) (from UniProt P37840-2 1-112) (natural protein)
